T1: CD86 on cells (WIL2-S human B-lymphoblastoid cells; HuCD86-2A2 CHO cells expressing CD86) (human, UniProt P42081 24-329)
T1 construct: whole, on cells; also called cell surface CD86
T1 sequence (looked up): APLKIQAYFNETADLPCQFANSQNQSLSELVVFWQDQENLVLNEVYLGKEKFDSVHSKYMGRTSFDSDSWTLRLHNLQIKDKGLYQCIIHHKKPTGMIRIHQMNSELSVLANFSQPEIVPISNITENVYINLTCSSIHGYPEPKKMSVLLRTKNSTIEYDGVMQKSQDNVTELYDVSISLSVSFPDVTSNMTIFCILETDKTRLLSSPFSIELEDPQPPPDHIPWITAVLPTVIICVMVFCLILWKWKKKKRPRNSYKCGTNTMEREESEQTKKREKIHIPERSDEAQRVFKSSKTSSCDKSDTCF

T2: Murine CD86-mIgG (R&D Systems, Inc) (murine, UniProt P42082 24-244, limits assumed)
T2 construct: also called muCD86
T2 sequence (looked up): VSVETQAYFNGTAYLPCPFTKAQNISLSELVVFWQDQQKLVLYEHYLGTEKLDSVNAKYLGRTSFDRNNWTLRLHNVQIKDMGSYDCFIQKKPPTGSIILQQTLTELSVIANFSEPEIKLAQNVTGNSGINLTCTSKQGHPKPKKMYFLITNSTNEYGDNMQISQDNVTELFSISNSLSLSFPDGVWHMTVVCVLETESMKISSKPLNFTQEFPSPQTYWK

T3: CD80-mIg (Ancell Catalog #510-020) (UniProt P33681 35-242)
T3 construct: Bought reagent; also called CD80-mIgG; sCD80
T3 sequence (looked up): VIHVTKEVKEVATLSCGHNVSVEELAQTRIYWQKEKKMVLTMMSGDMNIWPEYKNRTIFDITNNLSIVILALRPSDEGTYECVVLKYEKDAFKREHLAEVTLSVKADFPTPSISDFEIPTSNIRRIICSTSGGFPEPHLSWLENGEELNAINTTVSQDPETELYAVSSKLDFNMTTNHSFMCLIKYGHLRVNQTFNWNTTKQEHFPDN

T4: CD86-mIgG (Ancell, Inc) (UniProt P42081 24-247, limits assumed)
T4 construct: Bought reagent
T4 sequence (looked up): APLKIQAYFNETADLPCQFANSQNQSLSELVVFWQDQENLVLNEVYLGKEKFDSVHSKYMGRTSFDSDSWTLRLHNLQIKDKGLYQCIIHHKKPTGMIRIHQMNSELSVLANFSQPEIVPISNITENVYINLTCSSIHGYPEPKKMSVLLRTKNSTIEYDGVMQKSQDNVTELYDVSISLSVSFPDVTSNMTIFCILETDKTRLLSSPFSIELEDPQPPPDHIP

B1: FUN1-31 humanized FUN1 SMIP (Fc fusion)
chain: QVQLVESGGGLVKPGGSLRLSCAASGFTFSDYNMNWIRQAPGKGLEWVSNIDPYYGGTSYNQKFKGRFTISRDNAKNSLYLQMNSLRAEDTAVYYCARWDYRYDDGRAYYVMDFWGQGTTVTVSSGGGGSGGGGSGGGGSGGGGSDIVMTQSPDSLAVSLGERATINCKSSQSVLYSSNQKNYLAWYQQKPGQPPKLLIYWASTRESGVPDRFSGSGSGTDFTLTISSLQAEDVAVYYCHQYLYSWTFGQGTKLEIKRLEPKSSDKTHTCPPCPAPEAAGAPSVFLFPPKPKDTLMISRTPEVTCVVVDVSHEDPEVKFNWYVDGVEVHNAKTKPREEQYNSTYRVVSVLTVLHQDWLNGKAYACAVSNKALPAPIEKTISKAKGQPREPQVYTLPPSRDELTKNQVSLTCLVKGFYPSDIAVEWESNGQPENNYKTTPPVLDSDGSFFLYSKLTVDKSRWQQGNVFSCSVMHEALHNHYTQKSLSLSPG
B2: FUN1-12 humanized FUN1 SMIP (Fc fusion)
chain: EVQLVQSGAEVKKPGATVKISCKVSGYTFTDYNMNWVQQAPGKGLEWMGNIDPYYGGTSYNQKFKGRVTITADTSTDTAYMELSSLRSEDTAVYYCATWDYRYDDGRAYYVMDFWGQGTTVTVSSGGGGSGGGGSGGGGSGGGGSDIQMTQSPSSLSASVGDRVTITCKSSQSVLYSSNQKNYLAWYQQKPGKVPKLLIYWASTRESGVPSRFSGSGSGTDFTLTISSLQPEDVATYYCHQYLYSWTFGQGTKLEIKRLEPKSSDKTHTCPPCPAPEAAGAPSVFLFPPKPKDTLMISRTPEVTCVVVDVSHEDPEVKFNWYVDGVEVHNAKTKPREEQYNSTYRVVSVLTVLHQDWLNGKAYACAVSNKALPAPIEKTISKAKGQPREPQVYTLPPSRDELTKNQVSLTCLVKGFYPSDIAVEWESNGQPENNYKTTPPVLDSDGSFFLYSKLTVDKSRWQQGNVFSCSVMHEALHNHYTQKSLSLSPG
B3: IL10::GL1 xceptor (Fc fusion)
chain: SPGQGTQSENSCTHFPGNLPNMLRDLRDAFSRVKTFFQMKDQLDNLLLKESLLEDFKGYLGCQALSEMIQFYLEEVMPQAENQDPDIKAHVNSLGENLKTLRLRLRRCHRFLPCENKSKAVEQVKNAFNKLQEKGIYKAMSEFDIFINYIEAYITMKIRNLEPKSSDKTHTCPPCPAPEAAGAPSVFLFPPKPKDTLMISRTPEVTCVVVDVSHEDPEVKFNWYVDGVEVHNAKTKPREEQYNSTYRVVSVLTVLHQDWLNGKAYACAVSNKALPAPIEKTISKAKGQPREPQVYTLPPSRDELTKNQVSLTCLVKGFYPSDIAVEWESNGQPENNYKTTPPVLDSDGSFFLYSKLTVDKSRWQQGNVFSCSVMHEALHNHYTQKSLSLSPGNSLFNQEVQIPLTESYSPNSEVQLVESAGGLVQPGRSLKLSCAASGFTFSDYYMAWVRQAPTKGLEWVATISHDGSSTYYRDSVKGRFTISRDNAKTILYLQMDSLRSEDTATYFCARQNIMDYWGQGVMVTVSSGGGGSGGGGSGGGGSGGGGSDIVMTQTPSSQAVSAGEKVTMSCKSSQSLLYSRDQSNYLAWYQQKPGQSPKLLIYLASTRESGVPDRFIGSGSGTDFTLTISSVQAEDLADYYCQQHYNYPLTFGSGTKLEIK
B4: FUN1-32 humanized FUN1 SMIP (Fc fusion)
chain: QVQLVESGGGLVKPGGSLRLSCAASGFTFSDYNMNWIRQAPGKGLEWVSNIDPYYGGTSYNQKFKGRFTISRDNAKNSLYLQMNSLRAEDTAVYYCARWDYRYDDGRAYYVMDFWGQGTTVTVSSGGGGSGGGGSGGGGSGGGGSDIQMTQSPSSLSASVGDRVTITCKSSQSVLYSSNQKNYLAWYQQKPGKVPKLLIYWASTRESGVPSRFSGSGSGTDFTLTISSLQPEDVATYYCHQYLYSWTFGQGTKLEIKRLEPKSSDKTHTCPPCPAPEAAGAPSVFLFPPKPKDTLMISRTPEVTCVVVDVSHEDPEVKFNWYVDGVEVHNAKTKPREEQYNSTYRVVSVLTVLHQDWLNGKAYACAVSNKALPAPIEKTISKAKGQPREPQVYTLPPSRDELTKNQVSLTCLVKGFYPSDIAVEWESNGQPENNYKTTPPVLDSDGSFFLYSKLTVDKSRWQQGNVFSCSVMHEALHNHYTQKSLSLSPG
notes: SMIP: scFv-hinge-Fc single chain
B5: CTLA4-Fc fusion containing the L104E A29Y mutations, analogous to belatacept (Fc fusion)
chain: MHVAQPAVVLASSRGIASFVCEYASPGKYTEVRVTVLRQADSQVTEVCAATYMMGNELTFLDDSICTGTSSGNQVNLTIQGLRAMDTGLYICKVELMYPPPYYEGIGNGTQIYVIDPEPCPDSDLEPKSSDKTHTCPPCPAPEAAGAPSVFLFPPKPKDTLMISRTPEVTCVVVDVSHEDPEVKFNWYVDGVEVHNAKTKPREEQYNSTYRVVSVLTVLHQDWLNGKAYACAVSNKALPAPIEKTISKAKGQPREPQVYTLPPSRDELTKNQVSLTCLVKGFYPSDIAVEWESNGQPENNYKTTPPVLDSDGSFFLYSKLTVDKSRWQQGNVFSCSVMHEALHNHYTQKSLSLSPG
notes: the mutations are in the entry

Legend:
[1] = target: T1, CD86 on cells (WIL2-S human …); experiment: flow cytometry, supernatants of transfected HEK293 cells on HuCD86-2A2 cells
Method: Briefly, WIL2-S or HuCD86-2A2 cells were incubated with test molecules containing a CD86 antagonist at concentrations ranging from saturation to background levels. […] After the incubation, cells were washed and a fluorophore (R-phycoerythrin) tagged F(Ab′)₂ antibody specific for the Fc portion of the xceptor molecule, IL10R-Ig fusion protein, or anti-IL10 antibody. The tagged cells were then passed through a flow cytometer and data was analyzed by plotting median fluorescence intensity of each sample.
In another experiment, different versions of humanized FUN1 SMIPs were tested for CD86 binding. Supernatants of HEK293 cells transiently transfected with the six different versions of humanized FUN1 SMIPs were examined for CD86 binding using HuCD86-2A2 cells.

[2] = target: T2, Murine CD86-mIgG (R&D Systems, Inc); experiment: SPR (BIAcore T100), murine CD86-mIgG immobilized on CM5; bivalent analyte model, first site
Method: (§1) SPR measurements were performed on a BIAcore™ T100 SPR (Pharmacia Biotech AB, Uppsala) using HBS-EP+ (GE Healthcare) as a running buffer. Murine CD86-mIgG (25 μg/mL in 10 mM sodium acetate, pH 4.0, R&D Systems, Inc) was directly immobilized onto a CM5 chip using standard amine coupling chemistry (Biacore Amine Coupling Kit, GE Healthcare), with final immobilization levels of 150, 493, and 746 Ru. CTLA4-containing constructs were injected for 150 seconds, at a flow rate of 10 μl/min, in a series of concentrations from 4 nM to 8 μM. Dissociation was monitored for 600 seconds (CTLA4 constructs) or 1200 seconds (GL1 constructs), and the surface was regenerated by injecting 10 mM glycine, pH 1.7, for 60 seconds. […] Data were analyzed using BiaEvaluation for the T100 software (version 2.0.1, GE Healthcare).

[3] = target: T2, Murine CD86-mIgG (R&D Systems, Inc); experiment: SPR (BIAcore T100), murine CD86-mIgG immobilized on CM5; steady-state equilibrium fit
Method: as §1

[4] = target: T2, Murine CD86-mIgG (R&D Systems, Inc); experiment: SPR (BIAcore T100), murine CD86-mIgG immobilized on CM5; bivalent analyte model, second site
Method: as §1

[5] = target: T3, CD80-mIg (Ancell Catalog #510-020); experiment: SPR (BIAcore T100), CD80-mIgG immobilized on CM5; bivalent analyte model, second site
Method: (§2) Surface plasmon resonance (SPR) measurements were performed on a BIAcore™ T100 SPR (Pharmacia Biotech AB, Uppsala) using HBS-EP+ (GE Healthcare) as a running buffer. […] CTLA4-containing constructs were injected for 150 seconds, at a flow rate of 10 μl/min, in a series of concentrations from 5 nM to 1 μM. Dissociation was monitored for 600 seconds, and the surface was regenerated by injecting 50 mM sodium citrate, 500 mM sodium chloride, pH 4.0, for 60 seconds. […] Data were analyzed using BiaEvaluation for the T100 software (version 2.0.1, GE Healthcare).

[6] = target: T2, Murine CD86-mIgG (R&D Systems, Inc); experiment: SPR (BIAcore T100), murine CD86-mIgG immobilized on CM5; steady-state equilibrium, multiple Rmax fit
Method: as §1

[7] = target: T3, CD80-mIg (Ancell Catalog #510-020); experiment: SPR (BIAcore T100), CD80-mIgG immobilized on CM5; bivalent analyte model, first site
Method: as §2

[8] = target: T3, CD80-mIg (Ancell Catalog #510-020); experiment: SPR (BIAcore T100), CD80-mIgG immobilized on CM5; steady-state equilibrium fit
Method: as §2

[9] = target: T4, CD86-mIgG (Ancell, Inc); experiment: SPR (BIAcore T100), CD86-mIgG immobilized on CM5; bivalent analyte model, first site
Method: (§3) SPR measurements were performed on a BIAcore™ T100 SPR (Pharmacia Biotech AB, Uppsala) using HBS-EP+ (GE Healthcare) as a running buffer. […] CTLA4-containing constructs were injected for 150 seconds, at a flow rate of 10 μl/min, in a series of concentrations from 4 nM to 10 μM. Dissociation was monitored for 600 seconds, and the surface was either regenerated by injecting 50 mM sodium citrate, 500 mM sodium chloride, pH 5.0, for 60 seconds (wild type CTLA4) or 10 mM glycine, pH 1.7 (L104E A29Y CTLA4). […] Data were analyzed using BiaEvaluation for the T100 software (version 2.0.1, GE Healthcare).

[10] = target: T4, CD86-mIgG (Ancell, Inc); experiment: SPR (BIAcore T100), CD86-mIgG immobilized on CM5; steady-state equilibrium fit
Method: as §3
SPR measurements were performed as listed above, with the following exceptions: HBS-P+ (GE Healthcare) was used as a running buffer; dissociation was monitored for 1200 seconds; and the surface was regenerated by injecting 10 mM glycine, pH 1.7, for 60 seconds.

Row | Binder | binding result [1] | koff [2] [s⁻¹] | kon [2] [M⁻¹ s⁻¹] | Second Site ka [4] [s⁻¹] | Second Site kd [4] [s⁻¹] | other results
1 | B1 | no binding |  |  |  |  | 
2 | B2 | no binding |  |  |  |  | 
3 | B3 |  | 4.4e-05 | 67300 | 0.0271 | 0.088 | Kd [3]: 95.1 nM
4 | B4 | no binding |  |  |  |  | 
5 | B5 |  | 0.0787 | 27800 | 0.0728 | 0.168 | Second Site ka [5]: 0.00102 s⁻¹; Second Site kd [5]: 0.00332 s⁻¹; Kd [6]: 920 nM; koff [7]: 0.00373 s⁻¹; kon [7]: 155000 M⁻¹ s⁻¹; Kd [8]: 13.3 nM; koff [9]: 0.0102 s⁻¹; kon [9]: 84700 M⁻¹ s⁻¹; Kd [10]: 772 nM
